# Paper PMC11543927, “Subtleties in Clathrin heavy chain binding boxes provide selectivity among adaptor proteins of budding yeast” (Nature Communications, 2024)
# How the values were obtained:
# [1] = system: Abp1-mTurquoise2 at endocytic sites; assay: Lifetime TIRF microscopy, Abp1+ / Abp1- endocytic events of Ent1/Ent2-mNeonGreen; type: cell-based, Saccharomyces cerevisiae; settings: Supp. Figure 12; Ent1-mNeonGreen in yeast strains with Chc WT or box mutants (Cla, Cla + Arr, Cla + W); Type ABP+; average of single points
# Experimental: To determine the effect of mutating the CHC-NTD Clathrin, Arrestin and W-boxes in how endocytosis progresses, cells tagged with Ent1/2p-mNeonGreen, Chc-mScarlet and Abp1-mTurquoise2 were used. Yeast cells previously described were grown overnight at 30 °C with shaking in a 24-well plate using LD(=low-fluorescence SD)-Trp^-, Leu^- medium (yeast nitrogen base without amino acids supplemented with the corresponding DropOut media, Foredium, CYN402). Cells were diluted in fresh medium with a starting OD600nm of 0.1 and allowed to grow at 30 °C with shaking for several hours (4-6hs) until they reached log phase (OD600nm 0.6-1.2). Micro slide 8-well glass bottom plates (Catalog 80807, Ibidi, Gräfelfing, Germany) were treated with 50 µL of a 1 mg/ml concanavalin A (prepared in 10 mM sodium phosphate buffer pH 6, 10 mM CaCl2,1 mM MnCl2, 0.01% NaN3, Catalog C2010, Sigma Aldrich) solution, incubated for 5 min and then washed twice with 50 µL of fresh medium. 50 µL of cell suspension was applied, incubated for 5 min and removed. Then each well was washed twice with 50 µL of fresh medium. Finally, 50 µL of fresh medium was added. […]
# [2] = target: T1, Clathrin heavy chain fused to mScarlet (Chc-mScarlet), wild type (Saccharomyces cerevisiae, UniProt P22137 1-1653); assay: FRET or BRET; acceptor photobleaching FRET in living yeast cells at endocytic patches stalled with Latrunculin A, donor mNeonGreen on Ent1/Ent2, acceptor mScarlet on Chc, 21 °C; trimmed mean FRET efficiency; settings: partners not purified
# T1 construct: Clathrin heavy chain, Saccharomyces cerevisiae, the ORF of CHC1 fused in the 3' with mScarlet; also called Chc1-mScarlet; ScCHC-mScarlet; not shown: mScarlet, C-terminal, kept
# T1 sequence (P22137 whole entry, the tested form may be a part): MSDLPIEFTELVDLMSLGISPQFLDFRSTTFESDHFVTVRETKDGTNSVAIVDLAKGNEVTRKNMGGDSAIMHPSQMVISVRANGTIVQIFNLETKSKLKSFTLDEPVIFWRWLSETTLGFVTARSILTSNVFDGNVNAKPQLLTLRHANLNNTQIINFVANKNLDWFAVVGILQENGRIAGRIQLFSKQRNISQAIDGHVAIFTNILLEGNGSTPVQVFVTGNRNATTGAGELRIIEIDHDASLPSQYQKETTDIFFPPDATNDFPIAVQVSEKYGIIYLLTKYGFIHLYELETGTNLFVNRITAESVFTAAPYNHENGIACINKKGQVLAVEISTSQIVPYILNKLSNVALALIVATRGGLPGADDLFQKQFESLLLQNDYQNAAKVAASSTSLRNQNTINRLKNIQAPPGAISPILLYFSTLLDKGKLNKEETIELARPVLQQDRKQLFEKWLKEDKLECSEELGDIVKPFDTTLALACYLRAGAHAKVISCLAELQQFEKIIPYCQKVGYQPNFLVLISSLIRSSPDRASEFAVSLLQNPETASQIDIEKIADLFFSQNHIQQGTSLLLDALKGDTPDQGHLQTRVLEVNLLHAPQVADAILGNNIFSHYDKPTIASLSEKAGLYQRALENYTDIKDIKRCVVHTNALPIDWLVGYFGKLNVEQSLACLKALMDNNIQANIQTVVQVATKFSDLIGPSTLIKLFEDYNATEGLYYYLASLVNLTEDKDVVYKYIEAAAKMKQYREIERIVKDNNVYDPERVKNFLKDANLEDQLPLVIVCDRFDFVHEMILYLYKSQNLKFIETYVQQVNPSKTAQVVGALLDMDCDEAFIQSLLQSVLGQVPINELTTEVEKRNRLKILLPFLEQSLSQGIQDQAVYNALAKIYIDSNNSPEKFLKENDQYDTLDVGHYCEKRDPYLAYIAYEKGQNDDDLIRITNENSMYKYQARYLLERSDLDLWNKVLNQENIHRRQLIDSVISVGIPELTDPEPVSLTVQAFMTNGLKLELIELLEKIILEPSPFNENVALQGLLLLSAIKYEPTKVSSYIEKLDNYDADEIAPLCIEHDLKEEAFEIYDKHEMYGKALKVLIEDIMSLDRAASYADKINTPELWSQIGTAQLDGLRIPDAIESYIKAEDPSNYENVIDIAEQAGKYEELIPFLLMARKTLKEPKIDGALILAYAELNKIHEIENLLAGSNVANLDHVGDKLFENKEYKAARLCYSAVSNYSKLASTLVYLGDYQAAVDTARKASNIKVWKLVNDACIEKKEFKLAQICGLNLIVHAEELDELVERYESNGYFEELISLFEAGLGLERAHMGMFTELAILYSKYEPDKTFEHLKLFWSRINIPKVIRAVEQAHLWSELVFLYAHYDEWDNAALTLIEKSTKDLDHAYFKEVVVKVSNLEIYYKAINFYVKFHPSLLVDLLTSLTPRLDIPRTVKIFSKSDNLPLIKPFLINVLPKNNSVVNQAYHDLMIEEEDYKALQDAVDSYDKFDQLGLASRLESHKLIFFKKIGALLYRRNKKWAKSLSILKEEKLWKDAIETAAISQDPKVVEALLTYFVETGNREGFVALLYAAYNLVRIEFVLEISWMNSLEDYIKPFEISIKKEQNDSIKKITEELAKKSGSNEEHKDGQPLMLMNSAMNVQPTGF
# [3] = target: T2, Chc-mScarlet Clathrin box mutant (K63E, I87D, Q89A, K98E) (Saccharomyces cerevisiae, UniProt P22137 1-1653, K63E | I87D | Q89A | K98E); assay: as above; settings: partners not purified
# T2 construct: Clathrin heavy chain, Saccharomyces cerevisiae, the ORF of CHC1 fused in the 3' with mScarlet, Clathrin box mutant; also called Cla mutant; source: S. cerevisiae MK100, mutated plasmid pRS315-5'UTR CHC-mScarlet, endogenous CHC1 knocked out, in living cells; not shown: mScarlet, C-terminal, kept
# T2 sequence (P22137 whole entry K63E/I87D/Q89A/K98E, the tested form may be a part): as the sequence (P22137 whole entry, the tested form may be a part) above, with K63E, I87D, Q89A, K98E counted along it
# [4] = target: T3, Chc-mScarlet Clathrin and Arrestin box mutant (Cla+Arr) (Saccharomyces cerevisiae, UniProt P22137 1-1653, K63E | I87D | Q89A | K98E | Q195A | I197T | K251E); assay: as above; settings: partners not purified
# T3 construct: Clathrin heavy chain, Saccharomyces cerevisiae, the ORF of CHC1 fused in the 3' with mScarlet, Clathrin and Arrestin box mutant; source: S. cerevisiae MK100, mutated plasmid pRS315-5'UTR CHC-mScarlet, endogenous CHC1 knocked out, in living cells; not shown: mScarlet, C-terminal, kept
# T3 sequence (P22137 whole entry K63E/I87D/Q89A/K98E/Q195A/I197T/K251E, the tested form may be a part): as the sequence (P22137 whole entry, the tested form may be a part) above, with K63E, I87D, Q89A, K98E, Q195A, I197T, K251E counted along it
# [5] = target: T4, Chc-mScarlet Clathrin and W box mutant (Cla+W) (Saccharomyces cerevisiae, UniProt P22137 1-1653, F26A | K63E | I87D | Q89A | K98E | Q155A); assay: as above; settings: partners not purified
# T4 construct: Clathrin heavy chain, Saccharomyces cerevisiae, the ORF of CHC1 fused in the 3' with mScarlet, Clathrin and W box mutant; source: S. cerevisiae MK100, mutated plasmid pRS315-5'UTR CHC-mScarlet, endogenous CHC1 knocked out, in living cells; not shown: mScarlet, C-terminal, kept
# T4 sequence (P22137 whole entry F26A/K63E/I87D/Q89A/K98E/Q155A, the tested form may be a part): as the sequence (P22137 whole entry, the tested form may be a part) above, with F26A, K63E, I87D, Q89A, K98E, Q155A counted along it
# [6] = target: T5, Chc-mScarlet Clathrin, Arrestin and W box mutant (Cla+Arr+W) (Saccharomyces cerevisiae, UniProt P22137 1-1653, F26A | K63E | I87D | Q89A | K98E | Q155A | Q195A | I197T | K251E); assay: as above; settings: partners not purified
# T5 construct: Clathrin heavy chain, Saccharomyces cerevisiae, the ORF of CHC1 fused in the 3' with mScarlet, Clathrin, Arrestin and W box mutant; also called triple mutant; source: S. cerevisiae MK100, mutated plasmid pRS315-5'UTR CHC-mScarlet, endogenous CHC1 knocked out, in living cells; not shown: mScarlet, C-terminal, kept
# T5 sequence (P22137 whole entry F26A/K63E/I87D/Q89A/K98E/Q155A/Q195A/I197T/K251E, the tested form may be a part): as the sequence (P22137 whole entry, the tested form may be a part) above, with F26A, K63E, I87D, Q89A, K98E, Q155A, Q195A, I197T, K251E counted along it
molecule,measurement,setting,value
"Ent1 endogenously tagged with mNeonGreen (Ent1-mNeonGreen) (natural protein, UniProt Q12518 1-454, looked up, epsin Ent1, Saccharomyces cerevisiae, endogenous locus tagged with mNeonGreen; also called Ent1p; source: endogenously tagged, S. cerevisiae MK100, in living cells) MSKQFVRSAKNLVKGYSSTQVLVRNATSNDNHQVSKDSLIELAEKSYDSADFFEIMDMLDKRLNDKGKYWRHIAKALTVIDYLIRFGSENCVLWCRENLYIIKTLKEFRHEDDEGIDQGQIVRVKAKELTALLSDDERLNEERNMNIKGRNRKGRRRRGTGRSDENDDDLQRAISASRLTAEEDERRRKQDEDYETALQLSKEEEELKRLQDLQRMQQQQGQQQLQQPMYYDIFGNPITPEEYAQFQLQQQQQQQQQQLQQQPMYYDVFGNPITPEELAQFQQQQQLQEQQYLASMQQQQQAMSNNPFAKSEQSSSSPKRNQLVAASSPQQLQQQKQQEPLIQNRTGNQSMTDKYSKLNELLATGTGIDTFGNVGEARIPAQHTKTGTFINSQGTGYRQVSDDPNHNPFLNSQYTGLPSTSVVPTQTGYGFGNQSQQQSQNNGSNNRGYTLIDL","Frequency of ABP+ (Abp1-positive) endocytic events, Average",[1],33.3
same,FRET efficiency,[2],~8%
same,FRET efficiency,[3],~5%
same,FRET efficiency,[4],5.25%
same,FRET efficiency,[5],5.93%
same,FRET efficiency,[6],4.66%
